# Measurements published in article PMC13269782.
# T1: Cx47, human (human) (UniProt Q5T442)
# T1 sequence: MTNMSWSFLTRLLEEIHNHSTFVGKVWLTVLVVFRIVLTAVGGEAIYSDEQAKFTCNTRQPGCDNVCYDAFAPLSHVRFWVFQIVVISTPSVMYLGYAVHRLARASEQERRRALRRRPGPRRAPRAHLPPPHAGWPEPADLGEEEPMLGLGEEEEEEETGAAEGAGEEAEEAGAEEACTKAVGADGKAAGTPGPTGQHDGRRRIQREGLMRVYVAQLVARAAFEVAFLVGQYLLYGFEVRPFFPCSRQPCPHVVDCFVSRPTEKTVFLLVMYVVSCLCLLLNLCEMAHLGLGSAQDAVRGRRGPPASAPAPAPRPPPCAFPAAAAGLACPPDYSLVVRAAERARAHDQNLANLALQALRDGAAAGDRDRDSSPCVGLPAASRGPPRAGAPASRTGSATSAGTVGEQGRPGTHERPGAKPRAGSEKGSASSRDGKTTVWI
# B1: Cx47, human (natural protein)
# chain: T1 sequence
# Target: T1, Cx47, human (human)
binder,measurement,value
B1,"median junctional conductance (Gj), dual whole-cell patch clamp of DKO HEK293 cell pairs, homotypic; IQR 0.08–7.68; 20 pairs",1.3 nS
